Experimental data: patent US20240199761A1 (AstraZeneca / MedImmune, published 2024)
Where a chain is given by its changes, count along the chain named. Blank lines part the entries; values can stand above or below the binder they belong to.

What was measured:
recombinant human PAD2 [1] = target: recombinant human PAD2 (human, UniProt Q9Y2J8 1-665, enzymatically biotinylated on an Avi-tag (when captured on the SPR chip)); assay: cell-based or functional assay
huFcRn = target: T1, huFcRn (human, UniProt P55899 24-297; P61769 21-119, limits assumed); assay: huFcRn affinity chromatography, pH gradient elution
T1 construct: also called human neonatal Fc receptor

[2] = target: T2, recombinant human PAD2 (biotinylated) (human, UniProt Q9Y2J8 1-665, enzymatically biotinylated on an Avi-tag); assay: SPR (Biacore), biotinylated PAD2 on CM5/C1-streptavidin, Fab flowed over; average
T2 construct: not shown: Avi-tag (and any other tags); said to be at the C-terminus in this earlier assay

[3] = target: T3, recombinant mouse PAD2 (biotinylated) (mouse, UniProt Q08642 1-673, enzymatically biotinylated on an Avi-tag); assay: as above
T3 construct: not shown: Avi-tag (and any other tags); said to be at the C-terminus in this earlier assay

recombinant human PAD2 [4] = target: T4, recombinant human PAD2 (human, UniProt Q9Y2J8 1-665, enzymatically biotinylated on an Avi-tag); assay: SPR (Biacore 8K), biotinylated PAD2 on streptavidin chip, Fab flowed over
T4 construct: Recombinant, biotinylated on an Avi-tag and captured on streptavidin; also called peptidyl arginine deiminase 2

recombinant mouse PAD2 = target: T5, recombinant mouse PAD2 (mouse, UniProt Q08642 1-673, enzymatically biotinylated on an Avi-tag); assay: as above
T5 construct: Recombinant, biotinylated on an Avi-tag

recombinant mouse PAD4 = target: T6, recombinant mouse PAD4 (mouse, UniProt Q9Z183 1-666); assay: SPR; biotinylated antibody captured on C1-streptavidin, PAD4 flowed over
T6 construct: Recombinant

HPLC retention (huFcRn): 23.3 min
Relative retention (huFcRn): 0.828
B2: Clone 09 (Bis3, TM-YTE; Fab anti-PAD4, scFv anti-PAD2) (bispecific antibody, human IgG1, lambda)
heavy: not shown
light: QSALTQPRSVSGSPGQSVTISCTGTSGDVGRYSHVSWYQQHPGKAPKLIIYNVYERPSGVPDRFSGSKSGNTASLTISGLQAEDEADYYCSSHSRSSTPVLFGGGTKLTVLGQPKAAPSVTLFPPSSEELQANKATLVCLISDFYPGAVTVAWKADSSPVKAGVETTTPSKQSNNKYAASSYLSLTPEQWKSHRSYSCQVTHEGSTVEKTVAPTECS
notes: Bivalent bispecific IgG-HC-scFv; also called PAD240009

Kd [2]: 2.14 nM
koff [2]: 0.00101 s⁻¹
kon [2]: 474000 M⁻¹ s⁻¹
Kd [3]: 13.2 nM
koff [3]: 0.00484 s⁻¹
kon [3]: 378000 M⁻¹ s⁻¹
B6: 141LO0030 hIgG1 pgl-4 (Germlined) (Fab, V domains shown)
VH: not shown
VL: SYVLTQPPSVSVSPGQTASITCSGDKVGDKYVSWYQQKPGQSPVLVIYQDSQRPSGIPERFSGSNSGNTATLTISGTQAMDEADYYCQTWYDDALTFGSGTKVTVL
notes: Anti-PAD2; tested as Fab

Kd [2]: 3.9 nM
koff [2]: 0.00245 s⁻¹
kon [2]: 629000 M⁻¹ s⁻¹
Kd [3]: 17.8 nM
koff [3]: 0.0125 s⁻¹
kon [3]: 722000 M⁻¹ s⁻¹
B7: 141LO0039 hIgG1 pgl-4 (Germlined) (Fab, V domains shown)
VH: not shown
VL: B6 VL with Q88H, W90Y, Y91A, D92E, A94E, L95Y, T96V
notes: Anti-PAD2; tested as Fab

Kd [2]: 6.73 nM
koff [2]: 0.000629 s⁻¹
kon [2]: 93000 M⁻¹ s⁻¹
Kd [3]: 2.35 nM
koff [3]: 0.000288 s⁻¹
kon [3]: 123000 M⁻¹ s⁻¹
B10: PAD40175 hIgG1 ngl-2 (Fab, V domains shown)
VH: not shown
VL: QAVLTQPSSVSVAPGKTATITCGGDNIGSKSVHWYQQKPGQAPLLVIFYDTDRPSGVPERFSGSNSGNTATLTISRVEAGDEADYYCQVWDSNGDHYVFGTGTKLTVL
notes: Anti-PAD2; tested as Fab

Kd (recombinant human PAD2 [4]): 6.73 nM
Kd (recombinant mouse PAD2): 2.35 nM
B11: PAD40175 hIgG1 ngl-2 (anti-PAD2) Fab (Fab, V domains shown)
VH: not shown
VL: B10 VL
notes: Tested as Fab

Kd (recombinant mouse PAD4): 0.094 nM
koff (recombinant mouse PAD4): 0.000106 s⁻¹
kon (recombinant mouse PAD4): 1.14e+06 M⁻¹ s⁻¹
B14: AB1630205 (mouse anti-PAD4) (antibody, V domains shown)
VH: EVQLVESGGGLVKPGGSRKLSCAASGFTFSDYGMHWVRQAPEKGLEWVAYISSGSSTIYYADTVKGRFTISRDNAKNTLFLQMTSLRSEDTAMYYCTRTYYDDAMDYWGQGTSVTVSS
VL: SIVMTQTPKFLLVSAGDRVTITCKASQSVSNDVVWYQQKPGQSPKLLISYASNRYTGVPDRFTGSGYGTDFTFTISSVQAEDLAVYFCQQDYSSPWTFGGGTKLEIK
notes: Biotinylated antibody captured on the chip

Kd [2]: 3.31 nM
koff [2]: 0.0035 s⁻¹
kon [2]: 1.07e+06 M⁻¹ s⁻¹
Kd [3]: 33.8 nM
koff [3]: 0.026 s⁻¹
kon [3]: 777000 M⁻¹ s⁻¹
B19: 141LO0002 hIgG1 pgl-3 (Germlined) (Fab, V domains shown)
VH: not shown
VL: B6 VL with Q88E, T89V, W90G, Y91V, D93Y, A94E, L95Y, T96V
notes: Anti-PAD2; tested as Fab

Kd (recombinant human PAD2 [4]): 2.78 nM
Kd (recombinant mouse PAD2): 38.5 nM
B20: 141LO0002 hIgG1 pgl-4 (anti-PAD2) Fab (Fab, V domains shown)
VH: not shown
VL: B6 VL with Q88E, T89V, W90G, Y91V, D93Y, A94E, L95Y, T96V

Kd (recombinant human PAD2 [4]): 0.949 nM
B25: 141LO0030 hIgG1 ngl-2 (anti-PAD2) Fab (Fab, V domains shown)
VH: not shown
VL: B6 VL with S42A, I47M, F61I, M80V, D84E
notes: Tested as Fab

Kd (recombinant human PAD2 [4]): 0.364 nM
B28: 141LO0055 hIgG1 ngl-2 (anti-PAD2) Fab (Fab, V domains shown)
VH: not shown
VL: SYVLTQPPSVSVSPGQTASITCSGDKVGDKYVSWYQQKPGQAPVLVMYQDSQRPSGIPERISGSNSGNTATLTISGTQAVDEAEYYCQSENAVEYVFGSGTKVTVL
notes: Tested as Fab

Kd (recombinant mouse PAD4): 1.31 nM
koff (recombinant mouse PAD4): 0.000314 s⁻¹
kon (recombinant mouse PAD4): 239000 M⁻¹ s⁻¹
B30: AB1630204 (mouse anti-PAD4) (antibody, V domains shown)
VH: QVQLQQPGAELVKPGASVKLSCKASGYTFTSYWMHWVKQRPGRGPEWIGRIDPNSGGTKYNEKFKSKAILTVDKPSSTAYMQLSSLTSEDSAVYYCAREGGDYWYFDVWGAGTTVTVSS
VL: QIVLTQSPALMSASPGEKVTMTCSANSGLRYMYWYQQKPRSSPKPWIYLTSNLASGVPARFSGSGSGTSYSLTISSMEAEDAATYYCQQWSSIPPTFGAGTKLELK
notes: as for B14

Continued, binder first:

B1: Clone 07 (Bis3, TM; PAD4 Fab, PAD2 scFv) (bispecific antibody, human IgG1, lambda)
heavy: not shown
light: B2 light
potency (IC50), Histone-H3 citrullination ELISA, recombinant PAD2 (recombinant human PAD2 [1]): < 1 nM

B3: 141LO0035 hIgG1 pgl-4 (Germlined) Clone 22 (Fab, V domains shown)
VH: not shown
VL: B6 VL with Y91A, D92P, A94V, T96L
notes: Anti-PAD2 lead; tested here as Fab
Kd [2]: 0.218 nM
koff [2]: 0.000221 s⁻¹
kon [2]: 1.01e+06 M⁻¹ s⁻¹
Kd [3]: 0.794 nM
koff [3]: 0.000766 s⁻¹
kon [3]: 971000 M⁻¹ s⁻¹

B4: 141LO0035 hIgG1 pgl-4 (Clone 22, anti-PAD2) Fab (Fab, V domains shown)
VH: not shown
VL: B6 VL with Y91A, D92P, A94V, T96L
notes: Tested as Fab
Kd (recombinant human PAD2 [4]): 0.218 nM
Kd (recombinant mouse PAD2): 0.794 nM

B5: 141LO0030 hIgG1 pgl-4 (anti-PAD2) Fab (Fab, V domains shown)
VH: not shown
VL: B6 VL
notes: Tested as Fab
Kd (recombinant human PAD2 [4]): 2.14 nM
Kd (recombinant mouse PAD2): 13.2 nM

B8: 141LO0035 hIgG1 ngl-2 (anti-PAD2) Fab (Fab, V domains shown)
VH: not shown
VL: B28 VL with S89T, E90W, N91A, A92P, V93D, E94V, Y95L, V96L
notes: Tested as Fab
Kd (recombinant human PAD2 [4]): 0.185 nM
Kd (recombinant mouse PAD2): 0.571 nM

B9: 141LO0039 hIgG1 pgl-4 (anti-PAD2) Fab (Fab, V domains shown)
VH: not shown
VL: B6 VL with Q88H, W90Y, Y91A, D92E, A94E, L95Y, T96V
notes: Tested as Fab
Kd (recombinant human PAD2 [4]): 3.9 nM
Kd (recombinant mouse PAD2): 17.8 nM

B12: Clone 08 (Bis3, TM; PAD2 Fab, PAD4 scFv) (bispecific antibody, human IgG1, lambda)
heavy: not shown
light: SYVLTQPPSVSVSPGQTASITCSGDKVGDKYVSWYQQKPGQSPVLVIYQDSQRPSGIPERFSGSNSGNTATLTISGTQAMDEADYYCQTWAPDVLLFGSGTKVTVLGQPKAAPSVTLFPPSSEELQANKATLVCLISDFYPGAVTVAWKADSSPVKAGVETTTPSKQSNNKYAASSYLSLTPEQWKSHRSYSCQVTHEGSTVEKTVAPTECS
potency (IC50), Histone-H3 citrullination ELISA, recombinant PAD2 (recombinant human PAD2 [1]): < 1 nM

B13: Clone 10 (Bis3, TM-YTE; Fab anti-PAD2, scFv anti-PAD4) (bispecific antibody, human IgG1, lambda)
heavy: not shown
light: B12 light
notes: Bivalent bispecific IgG-HC-scFv; also called PAD240010
HPLC retention (huFcRn): 22.8 min
Relative retention (huFcRn): 0.753

B15: PAD40141 hIgG1 ngl-2 (Parent) (Fab, V domains shown)
VH: not shown
VL: B28 VL with S89T, E90W, N91D, A92S, V93N
notes: Anti-PAD2; tested as Fab
Kd [2]: 261 nM
koff [2]: 0.111 s⁻¹
kon [2]: 445000 M⁻¹ s⁻¹

B16: PAD40141 hIgG1 ngl-2 (anti-PAD2, parent) Fab (Fab, V domains shown)
VH: not shown
VL: B28 VL with S89T, E90W, N91D, A92S, V93N
notes: Tested as Fab
Kd (recombinant human PAD2 [4]): 261 nM

B17: 141LO0039 hIgG1 ngl-2 (anti-PAD2) Fab (Fab, V domains shown)
VH: not shown
VL: B28 VL with Q88H, S89T, E90Y, N91A, A92E, V93D
notes: Tested as Fab
Kd (recombinant human PAD2 [4]): 1.87 nM

B18: 141LO0002 hIgG1 pgl-3 (anti-PAD2) Fab (Fab, V domains shown)
VH: not shown
VL: B6 VL with Q88E, T89V, W90G, Y91V, D93Y, A94E, L95Y, T96V
notes: Tested as Fab
Kd (recombinant human PAD2 [4]): 3.31 nM
Kd (recombinant mouse PAD2): 33.8 nM

B21: 141LO0039 hIgG1 ngl-2 (Fab, V domains shown)
VH: not shown
VL: B28 VL with Q88H, S89T, E90Y, N91A, A92E, V93D
notes: Anti-PAD2; tested as Fab
Kd [2]: 1.87 nM
koff [2]: 0.00157 s⁻¹
kon [2]: 840000 M⁻¹ s⁻¹

B22: 141LO0030 hIgG1 ngl-2 (Fab, V domains shown)
VH: not shown
VL: B6 VL with S42A, I47M, F61I, M80V, D84E
notes: Anti-PAD2; tested as Fab
Kd [2]: 0.949 nM
koff [2]: 0.000613 s⁻¹
kon [2]: 647000 M⁻¹ s⁻¹

B23: 141LO0035 hIgG1 ngl-2 (Fab, V domains shown)
VH: not shown
VL: B28 VL with S89T, E90W, N91A, A92P, V93D, E94V, Y95L, V96L
notes: Anti-PAD2; tested as Fab
Kd [2]: 0.185 nM
koff [2]: 0.000192 s⁻¹
kon [2]: 1.04e+06 M⁻¹ s⁻¹
Kd [3]: 0.571 nM
koff [3]: 0.000646 s⁻¹
kon [3]: 1.14e+06 M⁻¹ s⁻¹

B24: 141LO0055 hIgG1 ngl-2 (Fab, V domains shown)
VH: not shown
VL: B28 VL
notes: Anti-PAD2; tested as Fab
Kd [2]: 0.364 nM
koff [2]: 0.000675 s⁻¹
kon [2]: 1.85e+06 M⁻¹ s⁻¹

B26: 141LO0002 hIgG1 pgl-4 (Germlined) (Fab, V domains shown)
VH: not shown
VL: B6 VL with Q88E, T89V, W90G, Y91V, D93Y, A94E, L95Y, T96V
Kd [2]: 2.78 nM
koff [2]: 0.00314 s⁻¹
kon [2]: 1.13e+06 M⁻¹ s⁻¹
Kd [3]: 38.5 nM
koff [3]: 0.0256 s⁻¹
kon [3]: 692000 M⁻¹ s⁻¹

B27: 141LO0002 hIgG1 ngl-2 (anti-PAD2) Fab (Fab, V domains shown)
VH: not shown
VL: B28 VL with Q88E, S89V, E90G, N91V, A92D, V93Y
Kd (recombinant human PAD2 [4]): 3.78 nM

B29: 141LO0002 hIgG1 ngl-2 (Fab, V domains shown)
VH: not shown
VL: B28 VL with Q88E, S89V, E90G, N91V, A92D, V93Y
Kd [2]: 3.78 nM
koff [2]: 0.00328 s⁻¹
kon [2]: 880000 M⁻¹ s⁻¹
